According to publication PMC5799168 (Scientific Reports, 2018):

System: wild-type and mutant Ndi1
Assay: Kinetic parameters of the oxidoreductase activity of wild-type and mutant Ndi1 for ubiquinone-1
Assay type: biochemical, Saccharomyces cerevisiae
Conditions: for Km: apparent Km for ubiquinone-1 (2.4–60 µM); for Km / Vmax: NADH fixed at 100 µM; for increase of Km value for ubiquinone-1 in comparison to wild-type enzyme / Vmax, % of the wild-type activity: relative to wild-type Ndi1; for Vmax: ubiquinone-1 as substrate (2.4–60 µM)
Description: This unique structure appears to be related to the competitive nature of the inhibition of Ndi1 oxidoreductase activity by stigmatellin. It is therefore hypothesized that L444, I459, R460, and S461, which interact with stigmatellin at the STG-1a site, are also involved in the binding of the substrate ubiquinone (Fig. 5). This hypothesis was evaluated by examining the effects of mutations of the proximal L444 and I459 on the kinetics of the enzymatic reaction of Ndi1. The effect of the mutation of S484, which specifically interacts with stigmatellin at the STG-1b site, was examined as a control. Furthermore, the effects of mutations of W63, P92, A393, Q394, H397, L447, Y482, M485, and L487, which interact with the aromatic head group of stigmatellin at the STG-1a and STG-1b sites, were also examined. Moreover, to investigate the functional role of the STG-2 site in ubiquinone binding, a mutation was also introduced to R479.
NADH-ubiquinone oxidoreductase activity was measured as described previously. In brief, the reaction was started by adding 100 µM NADH to the enzyme mixture containing 10 ng/mL Ndi1, 50 mM sodium phosphate (pH 6.0) and 1 mM EDTA, which was pre-incubated with various concentrations of ubiquinone-1 for 1 min. The decrease in 340 nm absorbance was measured as an indication of the oxidation of NADH (ε = 6.22 mM^−1 cm^−1) with a Shimadzu UV2000 spectrophotometer (Kyoto, Japan). The enzymatic activity obtained with 100 µM NADH and 60 µM ubiquinone-1 in the absence of any inhibitors (100% activity) catalyzed the oxidation of 1,890 μmol NADH/min/mg Ndi1. The concentrations of inhibitors required to obtain the half-maximal inhibition (IC50) were estimated by non-linear regression dose-response curves. The inhibition mode of each inhibitor for ubiquinone-1 was determined by the intersection point in double-reciprocal plots (Fig. 2B–E). To objectively evaluate the inhibition mode, the data of the inhibition kinetics were fitted to the Eq. (1) of mixed model inhibition in the Prism6 software program (GraphPad Software, Inc., La Jolla, CA).1 V=Vmax[S]/[S](1+[I]/αKi)+Km(1+[I]/Ki) […]
To determine the kinetic parameters of wild-type and mutant enzymes for ubiquinone-1, the NADH oxidation rates were measured in a fixed concentration of NADH (100 µM) and different concentrations of ubiquinone-1 (2.4–60 µM). Apparent Km and Vmax values were obtained by fitting a data set of initial velocity versus substrate concentration to the Michaelis-Menten model equation in the Prism6 software program.
Site-directed mutagenesis. The amino acid replacements of Ndi1 were basically performed with PrimeSTAR mutagenesis basal kit (Takara, Japan) using pET16b(NDI1-m) (2) and a synthetic oligonucleotide primer set (Table S2). The mutagenesis of H397 was performed with a QuikChange II XL site-directed mutagenesis kit (Stratagene, CA). Each mutation was confirmed through DNA sequencing (DNA sequencing service, Eurofins). The purification procedure of wild-type and mutant enzymes, used for the determination of the kinetic parameters (Table 2), was basically the same as the above procedure, without the replacement of the detergent from Triton X -100 with DDM. After washing the enzyme with buffer A containing 0.1% Triton X-100 and 15 mM histidine, 0.02% Triton X-100 was added to all buffer as a substitute for DDM. With the exception of 5 mutants containing L444D, I459A, […]
yield of the wild-type enzyme. […]

Molecule	Km [µM]	increase of Km value for ubiquinone-1 in comparison to wild-type enzyme [fold]	Vmax [µmol/min/mg]	Vmax, % of the wild-type activity [%]
L444D: recombinant Ndi1 mutant L444D (protein, UniProt P32340 27-513, looked up, variant L444D) Rotenone-insensitive …: STGVENSGAGPTSFKTMKVIDPQHSDKPNVLILGSGWGAISFLKHIDTKKYNVSIISPRSYFLFTPLLPSAPVGTVDEKSIIEPIVNFALKKKGNVTYYEAEATSINPDRNTVTIKSLSAVSQLYQPENHLGLHQAEPAEIKYDYLISAVGAEPNTFGIPGVTDYGHFLKEIPNSLEIRRTFAANLEKANLLPKGDPERRRLLSIVVVGGGPTGVEAAGELQDYVHQDLRKFLPALAEEVQIHLVEALPIVLNMFEKKLSSYAQSHLENTSIKVHLRTAVAKVEEKQLLAKTKHEDGKITEETIPYGTLIWATGNKARPVITDLFKKIPEQNSSKRGLAVNDFLQVKGSNNIFAIGDNAFAGLPPTAQVAHQEAEYLAKNFDKMAQIPNFQKNLSSRKDKIDLLFEENNFKPFKYNDDGALAYLGSERAIATIRSGKRTFYTGGGLMTFYLWRILYLSMILSARSRLKVFFDWIKLAFFKRDFFKGL	37.6 ± 3.9	1.7	447 ± 6.8	
I459A: recombinant Ndi1 mutant I459A (protein, UniProt P32340 27-513, looked up, variant I459A) Rotenone-insensitive …: STGVENSGAGPTSFKTMKVIDPQHSDKPNVLILGSGWGAISFLKHIDTKKYNVSIISPRSYFLFTPLLPSAPVGTVDEKSIIEPIVNFALKKKGNVTYYEAEATSINPDRNTVTIKSLSAVSQLYQPENHLGLHQAEPAEIKYDYLISAVGAEPNTFGIPGVTDYGHFLKEIPNSLEIRRTFAANLEKANLLPKGDPERRRLLSIVVVGGGPTGVEAAGELQDYVHQDLRKFLPALAEEVQIHLVEALPIVLNMFEKKLSSYAQSHLENTSIKVHLRTAVAKVEEKQLLAKTKHEDGKITEETIPYGTLIWATGNKARPVITDLFKKIPEQNSSKRGLAVNDFLQVKGSNNIFAIGDNAFAGLPPTAQVAHQEAEYLAKNFDKMAQIPNFQKNLSSRKDKIDLLFEENNFKPFKYNDLGALAYLGSERAIATARSGKRTFYTGGGLMTFYLWRILYLSMILSARSRLKVFFDWIKLAFFKRDFFKGL	40.2 ± 4.1	1.8	2.90 ± 0.0042	
A393G: recombinant Ndi1 mutant A393G (protein, UniProt P32340 27-513, looked up, variant A393G) Rotenone-insensitive …: STGVENSGAGPTSFKTMKVIDPQHSDKPNVLILGSGWGAISFLKHIDTKKYNVSIISPRSYFLFTPLLPSAPVGTVDEKSIIEPIVNFALKKKGNVTYYEAEATSINPDRNTVTIKSLSAVSQLYQPENHLGLHQAEPAEIKYDYLISAVGAEPNTFGIPGVTDYGHFLKEIPNSLEIRRTFAANLEKANLLPKGDPERRRLLSIVVVGGGPTGVEAAGELQDYVHQDLRKFLPALAEEVQIHLVEALPIVLNMFEKKLSSYAQSHLENTSIKVHLRTAVAKVEEKQLLAKTKHEDGKITEETIPYGTLIWATGNKARPVITDLFKKIPEQNSSKRGLAVNDFLQVKGSNNIFAIGDNAFAGLPPTGQVAHQEAEYLAKNFDKMAQIPNFQKNLSSRKDKIDLLFEENNFKPFKYNDLGALAYLGSERAIATIRSGKRTFYTGGGLMTFYLWRILYLSMILSARSRLKVFFDWIKLAFFKRDFFKGL	32.5 ± 1.9	1.4	882 ± 7.6	83
Q394G: recombinant Ndi1 mutant Q394G (protein, UniProt P32340 27-513, looked up, variant Q394G) Rotenone-insensitive …: STGVENSGAGPTSFKTMKVIDPQHSDKPNVLILGSGWGAISFLKHIDTKKYNVSIISPRSYFLFTPLLPSAPVGTVDEKSIIEPIVNFALKKKGNVTYYEAEATSINPDRNTVTIKSLSAVSQLYQPENHLGLHQAEPAEIKYDYLISAVGAEPNTFGIPGVTDYGHFLKEIPNSLEIRRTFAANLEKANLLPKGDPERRRLLSIVVVGGGPTGVEAAGELQDYVHQDLRKFLPALAEEVQIHLVEALPIVLNMFEKKLSSYAQSHLENTSIKVHLRTAVAKVEEKQLLAKTKHEDGKITEETIPYGTLIWATGNKARPVITDLFKKIPEQNSSKRGLAVNDFLQVKGSNNIFAIGDNAFAGLPPTAGVAHQEAEYLAKNFDKMAQIPNFQKNLSSRKDKIDLLFEENNFKPFKYNDLGALAYLGSERAIATIRSGKRTFYTGGGLMTFYLWRILYLSMILSARSRLKVFFDWIKLAFFKRDFFKGL	30.8 ± 3.4	1.4	452 ± 8.1	43
H397A: recombinant Ndi1 mutant H397A (protein, UniProt P32340 27-513, looked up, variant H397A) Rotenone-insensitive …: STGVENSGAGPTSFKTMKVIDPQHSDKPNVLILGSGWGAISFLKHIDTKKYNVSIISPRSYFLFTPLLPSAPVGTVDEKSIIEPIVNFALKKKGNVTYYEAEATSINPDRNTVTIKSLSAVSQLYQPENHLGLHQAEPAEIKYDYLISAVGAEPNTFGIPGVTDYGHFLKEIPNSLEIRRTFAANLEKANLLPKGDPERRRLLSIVVVGGGPTGVEAAGELQDYVHQDLRKFLPALAEEVQIHLVEALPIVLNMFEKKLSSYAQSHLENTSIKVHLRTAVAKVEEKQLLAKTKHEDGKITEETIPYGTLIWATGNKARPVITDLFKKIPEQNSSKRGLAVNDFLQVKGSNNIFAIGDNAFAGLPPTAQVAAQEAEYLAKNFDKMAQIPNFQKNLSSRKDKIDLLFEENNFKPFKYNDLGALAYLGSERAIATIRSGKRTFYTGGGLMTFYLWRILYLSMILSARSRLKVFFDWIKLAFFKRDFFKGL	35 ± 2.7	1.5	463 ± 17	44
I459W: recombinant Ndi1 mutant I459W (protein, UniProt P32340 27-513, looked up, variant I459W) Rotenone-insensitive …: STGVENSGAGPTSFKTMKVIDPQHSDKPNVLILGSGWGAISFLKHIDTKKYNVSIISPRSYFLFTPLLPSAPVGTVDEKSIIEPIVNFALKKKGNVTYYEAEATSINPDRNTVTIKSLSAVSQLYQPENHLGLHQAEPAEIKYDYLISAVGAEPNTFGIPGVTDYGHFLKEIPNSLEIRRTFAANLEKANLLPKGDPERRRLLSIVVVGGGPTGVEAAGELQDYVHQDLRKFLPALAEEVQIHLVEALPIVLNMFEKKLSSYAQSHLENTSIKVHLRTAVAKVEEKQLLAKTKHEDGKITEETIPYGTLIWATGNKARPVITDLFKKIPEQNSSKRGLAVNDFLQVKGSNNIFAIGDNAFAGLPPTAQVAHQEAEYLAKNFDKMAQIPNFQKNLSSRKDKIDLLFEENNFKPFKYNDLGALAYLGSERAIATWRSGKRTFYTGGGLMTFYLWRILYLSMILSARSRLKVFFDWIKLAFFKRDFFKGL	75.6 ± 12	3.3	58.0 ± 1.5	
W63F: recombinant Ndi1 mutant W63F (protein, UniProt P32340 27-513, looked up, variant W63F) Rotenone-insensitive …: STGVENSGAGPTSFKTMKVIDPQHSDKPNVLILGSGFGAISFLKHIDTKKYNVSIISPRSYFLFTPLLPSAPVGTVDEKSIIEPIVNFALKKKGNVTYYEAEATSINPDRNTVTIKSLSAVSQLYQPENHLGLHQAEPAEIKYDYLISAVGAEPNTFGIPGVTDYGHFLKEIPNSLEIRRTFAANLEKANLLPKGDPERRRLLSIVVVGGGPTGVEAAGELQDYVHQDLRKFLPALAEEVQIHLVEALPIVLNMFEKKLSSYAQSHLENTSIKVHLRTAVAKVEEKQLLAKTKHEDGKITEETIPYGTLIWATGNKARPVITDLFKKIPEQNSSKRGLAVNDFLQVKGSNNIFAIGDNAFAGLPPTAQVAHQEAEYLAKNFDKMAQIPNFQKNLSSRKDKIDLLFEENNFKPFKYNDLGALAYLGSERAIATIRSGKRTFYTGGGLMTFYLWRILYLSMILSARSRLKVFFDWIKLAFFKRDFFKGL	53.1 ± 6.4	2.3	1450 ± 27	137
